What was measured:
[1] = system: adult pluripotent epiblast-like stem cells; experiment: induction of epiblast-like stem cells in culture; assay type: cell-based, rat; conditions: ELSCs
[2] = system: adult totipotent blastomeric-like stem cells; experiment: induction of blastomeric-like stem cells in culture; assay type: cell-based, rat; conditions: BLSCs
Source text: 1961; Rohme 1981; Young and Black, 2005a].
FIG. 7. Blastomeric-like stem cells (BLSCs) harvested from male Sprague-Dawley out bred rat 0001 and propagated from a single cell derived by serial dilution clonogenic analysis, then genomically labeled with LacZ to synthesize the beta-galactosidase gene product. Clone designated as Scl-44beta. […] B-L is phase contrast microscopy to show unstained cells in field of view. […] Original magnification 200×.
FIG. 8. Blastomeric-like stem cells (BLSCs) harvested from male Sprague-Dawley out bred rat 0001 and propagated from a single cell derived by serial dilution clonogenic analysis, then genomically labeled with LacZ to synthesize the beta-galactosidase gene product. Clone designated as Scl-44beta.

B1: brain-derived neurotrophic factor: lineage-induction agent (protein, UniProt P23560 19-247, looked up)
Neurotrophic factor BDNF …: APMKEANIRGQGGLAYPGVRTHGTLESVNGPKAGSRGLTSLADTFEHVIEELLDEDQKVRPNEENNKDADLYTSRVMLSSQVPLEPPLLFLLEEYKNYLDAANMSMRVRRHSDPARRGELSVCDSISEWVTAADKKTAVDMSGGTVTVLEKVPVSKGQLKQYFYETKCNPMGYTKEGCRGIDKRHWNSQCRTTQSYVRALTMDSKKRIGWRFIRIDTSCVCTLTIKRGR
With B1 the “response to lineage-induction agent” value [1] was “forming cells belonging to the ectodermal lineage” and the “response to lineage-induction agent” value [2] was “forming cells belonging to the ectodermal lineage”.

Source: patent US20130071357A1, “IDENTIFICATION, PROLIFERATION IN SITU, HARVESTING, SEPARATION, AND TRANSPLANTATION OF ADULT-DERIVED REGENERATIVE PLURIPOTENT TRANSITIONAL BLASTOMERE-LIKE STEM CELLS AND METHODS OF TREATMENT THEREOF” (HEYGEN, LLC, priority 2011, published 2013)
